From article PMC2959088

Key:
[1] = target: human cathepsin B (human); assay: enzyme inhibition assay (residual activity on the fluorogenic substrate Z-Phe-Arg-MCA); cathepsin B or L (0.3 nM) incubated 5 min at 37°C with varied inhibitor in 100 mM sodium acetate pH 5.5, 2.5 mM DTT; substrate 0.01 mM; triplicate; Ki(app) by non linear regression (GraFit), Ki by Morrison's procedure
[2] = target: human cathepsin L (human); assay: as above

Sequence of Oryzacystatin-1 (P09229 39-140): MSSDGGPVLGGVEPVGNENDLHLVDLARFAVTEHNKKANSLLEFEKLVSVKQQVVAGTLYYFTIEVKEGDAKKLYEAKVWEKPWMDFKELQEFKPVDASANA

Substance	Ki [1]	Ki [2]
Canecystatin-1 (natural protein)	87.6 nM	0.1 nM
Oryzacystatin-1 (from UniProt P09229 39-140) (natural protein)	78.5 nM	
Reverse Mutant 1 (T30I) (designed binder)		1.93 nM
Reverse Mutant 2 (Q97L) (designed binder)		11.7 nM
Reverse Mutant 3 (T30I, Q97L) (designed binder)		12.5 nM
